Data as given in PMC9631991.

Biological target: biotinylated pro-LC3B (residues 1-125) (human) (UniProt Q9GZQ8)
Assay: SPR; biotinylated LC3B constructs immobilised on NeutrAvidin-coated CM5 chips; ATG4b proteins flowed over, 0.2 nM~20 uM; 1X PBS, 0.5 mM TCEP, 0.05% Tween 20, 20 °C; Biacore 4000; 1:1 binding model

## ATG4b WT (full-length ATG4b) (from UniProt Q9Y4P1 1-393) (enzyme)
  Kd: 321 nM
